Consider 2 molecules from patent US20130064834A1 (published 2013).

Assay [1] has as its target T1, tagged rhesus monkey (Macaca mulata) PCSK9 (rhesus monkey (Macaca mulata), UniProt A8T666 31-692).
T1 construct: also called mmPCSK9-mmh; mmPCSK9
Description: competition ELISA vs hLDLR-ecto, pH 7.2.
Description: (§1) Briefly, hLDLR-ecto, hLDLR EGF-A-hFc or hLDLR EGF-AB-hFc, each at 2 μg/ml, was coated on a 96-well plate in PBS buffer overnight at 4° C., and nonspecific binding sites blocked with BSA. […] The equilibrated sample solutions were transferred to receptor or receptor fragment coated plates.

For assay [2], the target named is T2, Human PCSK9-myc-myc-his (human, UniProt Q8NBP7 31-692).
T2 construct: also called hPCSK9-mmh; hPCSK9
Description: SPR, antigen captured at high density, pH 5.5, 25C.

Assay [3] deals with T2, Human PCSK9-myc-myc-his. Description: SPR, mAb amine-coupled, 37C, pH 7.4. For orientation: SPR reads the build-up and loss of mass on a sensor chip optically.
Description: (§2) Briefly, mAbs were immobilized onto BIACORE™ CM5 sensor chips via amine coupling.
Assay [4] addresses T3, hPCSK9(D374Y)-mmh (human, UniProt Q8NBP7 31-692).
T3 construct: also called hPCSK(D374Y)-mmh
Description: SPR, mAb amine-coupled, 37C, pH 7.4.
Description: as §2

Assay [5] concerns the target T4, cynomolgus monkey (Macaca fascicularis) PCSK9, myc-myc-his tagged (cynomolgus monkey (Macaca fascicularis), UniProt A8T662 31-692 (Macaca nemestrina entry), limits assumed).
T4 construct: also called mfPCSK9-mmh; mfPCSK9
Description: SPR, mAb amine-coupled, 37C, pH 7.4.
Description: as §2

The target in assay [6] is T3, hPCSK9(D374Y)-mmh. Description: SPR, mAb amine-coupled, 25C, pH 5.5.
Description: as §2
Assay [7] addresses T2, Human PCSK9-myc-myc-his. Description: cell-based or functional assay.
The target in assay [8] is T3, hPCSK9(D374Y)-mmh. Description: competition ELISA vs EGF-AB-hFc, pH 7.2. (ELISA stands for enzyme-linked immunosorbent assay.)
Description: as §1
Assay [9] deals with T5, mouse PCSK9, myc-myc-his tagged (mouse, UniProt Q80W65 35-694).
T5 construct: also called mPCSK9-mmh; mPCSK9
Description: competition ELISA vs EGF-A-hFc, pH 7.2.
Description: as §1

Assay [10] deals with T1, tagged rhesus monkey (Macaca mulata) …. Description: competition ELISA vs EGF-A-hFc, pH 7.2.
Description: as §1
Assay [11] has as its target T3, hPCSK9(D374Y)-mmh. Description: SPR, mAb captured on anti-human IgG, 25C.
The target of assay [12] is T2, Human PCSK9-myc-myc-his. Description: competition ELISA vs EGF-A-hFc, pH 7.2.
Description: as §1
Assay [13] has as its target T2, Human PCSK9-myc-myc-his. Description: SPR, mAb captured on anti-hFc, 100 nM antigen.
Description: (§3) Changes in RU due to the binding of each protein to the mAb surface was determined.
The target of assay [14] is T6, Chimeric protein #1 (mPro-hCat-mC-term-mmh) (mouse; human, UniProt Q80W65 35-694).
T6 chain: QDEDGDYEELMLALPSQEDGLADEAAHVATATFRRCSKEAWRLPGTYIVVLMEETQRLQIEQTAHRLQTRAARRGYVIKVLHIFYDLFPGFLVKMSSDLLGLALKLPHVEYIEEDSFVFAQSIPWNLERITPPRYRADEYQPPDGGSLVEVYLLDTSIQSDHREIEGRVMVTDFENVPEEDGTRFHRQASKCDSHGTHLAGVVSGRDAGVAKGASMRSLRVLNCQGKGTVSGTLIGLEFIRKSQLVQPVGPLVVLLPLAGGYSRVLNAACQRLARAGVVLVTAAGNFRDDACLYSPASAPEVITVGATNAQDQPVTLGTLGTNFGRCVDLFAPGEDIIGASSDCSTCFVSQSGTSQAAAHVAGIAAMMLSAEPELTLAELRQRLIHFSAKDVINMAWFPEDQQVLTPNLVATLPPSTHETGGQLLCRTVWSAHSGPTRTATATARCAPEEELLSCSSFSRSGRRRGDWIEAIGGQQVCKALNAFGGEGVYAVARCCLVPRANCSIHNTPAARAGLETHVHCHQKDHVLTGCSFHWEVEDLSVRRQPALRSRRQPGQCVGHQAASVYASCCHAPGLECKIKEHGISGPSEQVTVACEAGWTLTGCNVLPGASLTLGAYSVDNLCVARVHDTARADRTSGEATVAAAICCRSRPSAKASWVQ
Description: SPR, mAb captured on anti-hFc, 100 nM antigen.
Description: as §3

Assay [15] concerns the target T5, mouse PCSK9, myc-myc-his tagged. Description: SPR, mAb captured on anti-hFc, 100 nM antigen.
Description: as §3
In assay [16] the target is Chimeric protein #2 (hPro-mCat-mC-term-mmh) (human; mouse, UniProt Q80W65 19-694). Description: SPR, mAb captured on anti-hFc, 100 nM antigen.
Description: as §3
Assay [17] has as its target T3, hPCSK9(D374Y)-mmh. Description: competition ELISA vs EGF-A-hFc, pH 7.2.
Description: as §1

A value given as a limit tells only on which side of the number the result lay.

T4 sequence (A8T662 31-692 limits assumed): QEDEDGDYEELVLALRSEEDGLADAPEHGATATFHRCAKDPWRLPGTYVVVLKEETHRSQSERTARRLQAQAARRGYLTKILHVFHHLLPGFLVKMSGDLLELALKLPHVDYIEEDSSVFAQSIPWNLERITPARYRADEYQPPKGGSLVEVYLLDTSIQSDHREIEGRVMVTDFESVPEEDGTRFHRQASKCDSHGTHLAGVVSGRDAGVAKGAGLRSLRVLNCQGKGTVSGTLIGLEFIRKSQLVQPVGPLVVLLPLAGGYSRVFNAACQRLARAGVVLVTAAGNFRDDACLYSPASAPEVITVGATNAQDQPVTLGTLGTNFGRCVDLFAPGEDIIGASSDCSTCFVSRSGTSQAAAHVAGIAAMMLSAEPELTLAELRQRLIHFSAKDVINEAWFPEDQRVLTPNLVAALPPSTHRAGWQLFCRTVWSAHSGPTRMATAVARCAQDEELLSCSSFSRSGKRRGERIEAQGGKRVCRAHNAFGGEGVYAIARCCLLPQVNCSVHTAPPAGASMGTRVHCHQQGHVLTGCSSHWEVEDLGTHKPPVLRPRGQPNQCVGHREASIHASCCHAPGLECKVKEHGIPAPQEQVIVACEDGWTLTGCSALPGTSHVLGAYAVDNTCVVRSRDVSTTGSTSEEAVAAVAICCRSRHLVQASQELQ
T1 sequence (A8T666 31-692 limits assumed): as the sequence (A8T662 31-692 limits assumed) above, with A607P, E639K counted along it

B1: H1H316P (antibody, V domains shown)
VH: EVQLVESGGGLVQPGGSLRLSCAASGFTFNNYAMNWVRQAPGKGLDWVSTISGSGGTTNYADSVKGRFIISRDSSKHTLYLQMNSLRAEDTAVYYCAKDSNWGNFDLWGRGTLVTVSS
VL: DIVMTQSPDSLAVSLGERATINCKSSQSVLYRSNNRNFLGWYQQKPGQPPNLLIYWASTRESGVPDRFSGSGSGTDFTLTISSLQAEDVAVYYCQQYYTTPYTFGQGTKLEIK
notes: Fully human mAb made in CHO cells; also called mAb316P
Turning to B1, the IC50 was less than 0.25 nM in assay [1]; 0.139 nM in [8]; less than 0.25 nM in [9]; less than 0.25 nM in [10]; less than 0.125 nM in [12]; 0.203 nM in [17]. Further, the Kd in assay [2] was 0.144 nM; in [3], 4 nM; in assay [4] it was 6.66 nM; in assay [5] it was 3.77 nM; in assay [6] it was 0.166 nM; in [11] it was 1.78 nM. Moreover, the T1/2 in [2] amounted to 83 min; in assay [3], 9 min; in assay [4], 4 min; in assay [5] it was 11 min; in assay [6], 13 min; in [11], 14 min. In assay [7], the “IC50, LDL uptake in HepG2 cells with 50 nM hPCSK9-mmh” value was 21.3 nM. In addition, the “change in RU” value was determined as 500 RU in [13], 529 RU in assay [14], 505 RU in assay [15] and 451 RU in [16].

B2: H1M300N (antibody, V domains shown)
VH: EMQLVESGGGLVQPGGSLRLSCAASGFTFSSHWMKWVRQAPGKGLEWVANINQDGSEKYYVDSVKGRFTISRDNAKNSLFLQMNSLRAEDTAVYYCARDIVLMVYDMDYYYYGMDVWGQGTTVTVSS
VL: not shown
notes: Fully human version made in CHO cells
As for B2, the IC50 in assay [1] is 0.255 nM; in assay [8], 0.142 nM; in assay [9], more than 33 nM; in assay [10] it was 0.256 nM; in assay [12] it was 0.146 nM; in [17], 0.135 nM. Moreover, the dissociation constant (Kd) in assay [2] is 1.18 nM; in assay [3] it was 2.47 nM; in [4], 2.61 nM; in assay [5], 4.81 nM; in [6], 9.03 nM; in [11], 1.06 nM. In addition, the T1/2 was 26 min in assay [2]; 20 min in assay [3]; 14 min in assay [4]; 8 min in assay [5]; 3 min in assay [6]; 49 min in [11]. Further, the “IC50, LDL uptake in HepG2 cells with 50 nM hPCSK9-mmh” value in [7] stood at 22.1 nM. The “change in RU” value in [13] is 320 RU; in assay [14] it was 243 RU; in assay [15], 13 RU; in assay [16], 76 RU.

The IC50 is the concentration that inhibits the measured activity by half. As usually defined, the Kd is the equilibrium constant for the complex coming apart.
